Assay results as given in US7002001.

Columns and labels:
[1] = target: E1Q2 mutant C3 (Arg1303 changed to Glu, plus Arg1320 changed to Gln)
[2] = target: C3 mutant with cys(C) at position 1303 and glutamine at 1320
[3] = target: mutant C3M-I23 (Arg1303->Gln)
[4] = target: mutant C3M-51 (Arg1320->Gln)
[5] = target: C3 mutant with gly(G) at position 1303 and glutamine at 1320
[6] = target: C3 mutant with trp(W) at position 1303 and glutamine at 1320
[7] = target: mutant C3M-26 (Arg1303->Gln, Arg1320->Gln)
Chain of mutant C3M-26 (Arg1303->Gln, Arg1320->Gln) (chain, as listed by the source, stated change not applied, chain 1 of 2): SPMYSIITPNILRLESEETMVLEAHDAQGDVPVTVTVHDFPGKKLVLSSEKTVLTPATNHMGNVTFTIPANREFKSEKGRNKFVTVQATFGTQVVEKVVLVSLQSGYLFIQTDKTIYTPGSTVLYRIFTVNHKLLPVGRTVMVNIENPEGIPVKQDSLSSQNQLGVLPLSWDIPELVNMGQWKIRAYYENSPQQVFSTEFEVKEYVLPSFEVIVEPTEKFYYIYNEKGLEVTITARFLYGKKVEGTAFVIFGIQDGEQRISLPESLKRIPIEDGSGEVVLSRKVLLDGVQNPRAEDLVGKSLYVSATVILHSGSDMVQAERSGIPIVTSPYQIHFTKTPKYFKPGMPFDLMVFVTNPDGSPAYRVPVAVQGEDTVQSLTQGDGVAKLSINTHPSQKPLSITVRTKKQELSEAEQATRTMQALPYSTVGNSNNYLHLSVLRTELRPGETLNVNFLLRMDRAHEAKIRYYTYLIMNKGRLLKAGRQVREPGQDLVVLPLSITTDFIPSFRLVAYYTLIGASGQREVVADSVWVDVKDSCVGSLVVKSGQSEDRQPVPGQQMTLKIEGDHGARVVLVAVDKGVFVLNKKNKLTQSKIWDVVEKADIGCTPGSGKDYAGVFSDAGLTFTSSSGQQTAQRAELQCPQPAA
Chain of mutant C3M-26 (Arg1303->Gln, Arg1320->Gln) (chain, as listed by the source, stated change not applied, chain 2 of 2): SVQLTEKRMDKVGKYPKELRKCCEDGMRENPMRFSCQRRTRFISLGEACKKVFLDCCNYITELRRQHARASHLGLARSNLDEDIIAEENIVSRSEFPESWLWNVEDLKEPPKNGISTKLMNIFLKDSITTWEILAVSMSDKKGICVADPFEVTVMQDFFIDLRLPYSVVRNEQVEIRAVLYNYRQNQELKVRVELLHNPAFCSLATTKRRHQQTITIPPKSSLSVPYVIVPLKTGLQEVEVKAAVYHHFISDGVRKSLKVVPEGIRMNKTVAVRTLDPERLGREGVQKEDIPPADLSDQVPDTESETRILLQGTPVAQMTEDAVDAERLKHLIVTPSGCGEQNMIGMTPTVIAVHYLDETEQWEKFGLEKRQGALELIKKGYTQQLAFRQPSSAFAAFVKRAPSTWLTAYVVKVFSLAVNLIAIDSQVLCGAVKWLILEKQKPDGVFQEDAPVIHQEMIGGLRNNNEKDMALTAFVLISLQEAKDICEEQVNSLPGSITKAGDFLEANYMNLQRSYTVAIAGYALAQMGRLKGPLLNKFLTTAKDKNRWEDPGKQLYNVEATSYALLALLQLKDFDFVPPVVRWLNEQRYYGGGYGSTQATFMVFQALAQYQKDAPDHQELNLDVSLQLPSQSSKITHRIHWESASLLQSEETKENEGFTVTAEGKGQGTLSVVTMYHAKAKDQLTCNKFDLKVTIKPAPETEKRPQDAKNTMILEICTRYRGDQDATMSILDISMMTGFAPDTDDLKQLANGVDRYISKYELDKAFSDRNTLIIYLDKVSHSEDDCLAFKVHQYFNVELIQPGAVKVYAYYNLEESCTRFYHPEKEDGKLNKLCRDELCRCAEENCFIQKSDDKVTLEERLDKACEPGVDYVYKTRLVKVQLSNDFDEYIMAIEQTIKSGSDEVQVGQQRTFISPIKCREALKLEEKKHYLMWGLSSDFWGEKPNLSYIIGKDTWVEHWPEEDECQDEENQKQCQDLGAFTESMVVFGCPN

[8] = target: C3 mutant with tyr(Y) at position 1303 and glutamine at 1320
[9] = target: wild-type human C3 (expressed from the PC3 coding sequence)

Chain of mutant C3M-51 (Arg1320->Gln) (chain, as listed by the source, stated change not applied, chain 1 of 2): as the sequence (chain, as listed by the source, stated change not applied, chain 1 of 2) above
Chain of mutant C3M-51 (Arg1320->Gln) (chain, as listed by the source, stated change not applied, chain 2 of 2): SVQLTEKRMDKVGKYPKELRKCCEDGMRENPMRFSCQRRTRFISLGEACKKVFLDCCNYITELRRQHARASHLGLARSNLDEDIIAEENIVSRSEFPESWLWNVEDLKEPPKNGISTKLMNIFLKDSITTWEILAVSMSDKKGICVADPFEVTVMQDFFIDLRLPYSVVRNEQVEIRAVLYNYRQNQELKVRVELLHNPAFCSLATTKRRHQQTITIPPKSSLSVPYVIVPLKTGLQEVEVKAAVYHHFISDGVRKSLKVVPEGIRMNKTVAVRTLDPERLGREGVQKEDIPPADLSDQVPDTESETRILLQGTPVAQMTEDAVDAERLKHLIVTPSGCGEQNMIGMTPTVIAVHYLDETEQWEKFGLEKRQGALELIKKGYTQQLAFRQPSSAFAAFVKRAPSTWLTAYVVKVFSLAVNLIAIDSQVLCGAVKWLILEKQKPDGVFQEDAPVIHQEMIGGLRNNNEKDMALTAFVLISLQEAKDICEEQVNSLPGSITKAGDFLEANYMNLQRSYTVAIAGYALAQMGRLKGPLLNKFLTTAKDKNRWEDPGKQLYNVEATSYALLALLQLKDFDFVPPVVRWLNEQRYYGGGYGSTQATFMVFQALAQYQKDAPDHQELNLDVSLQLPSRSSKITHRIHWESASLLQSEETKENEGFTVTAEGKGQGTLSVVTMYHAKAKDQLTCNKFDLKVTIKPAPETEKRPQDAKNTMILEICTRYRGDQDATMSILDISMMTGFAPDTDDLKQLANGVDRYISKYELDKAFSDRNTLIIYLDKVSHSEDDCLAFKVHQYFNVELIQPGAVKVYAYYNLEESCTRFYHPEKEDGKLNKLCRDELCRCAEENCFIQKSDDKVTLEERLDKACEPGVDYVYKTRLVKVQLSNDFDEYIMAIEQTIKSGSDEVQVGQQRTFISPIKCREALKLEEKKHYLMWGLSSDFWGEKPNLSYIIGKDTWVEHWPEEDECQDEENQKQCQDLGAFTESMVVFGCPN
Chain of C3 mutant with gly(G) at position 1303 and glutamine at 1320 (chain, as listed by the source mutant, chain 1 of 2): as the sequence (chain, as listed by the source, stated change not applied, chain 1 of 2) above
Chain of C3 mutant with gly(G) at position 1303 and glutamine at 1320 (chain, as listed by the source mutant, chain 2 of 2): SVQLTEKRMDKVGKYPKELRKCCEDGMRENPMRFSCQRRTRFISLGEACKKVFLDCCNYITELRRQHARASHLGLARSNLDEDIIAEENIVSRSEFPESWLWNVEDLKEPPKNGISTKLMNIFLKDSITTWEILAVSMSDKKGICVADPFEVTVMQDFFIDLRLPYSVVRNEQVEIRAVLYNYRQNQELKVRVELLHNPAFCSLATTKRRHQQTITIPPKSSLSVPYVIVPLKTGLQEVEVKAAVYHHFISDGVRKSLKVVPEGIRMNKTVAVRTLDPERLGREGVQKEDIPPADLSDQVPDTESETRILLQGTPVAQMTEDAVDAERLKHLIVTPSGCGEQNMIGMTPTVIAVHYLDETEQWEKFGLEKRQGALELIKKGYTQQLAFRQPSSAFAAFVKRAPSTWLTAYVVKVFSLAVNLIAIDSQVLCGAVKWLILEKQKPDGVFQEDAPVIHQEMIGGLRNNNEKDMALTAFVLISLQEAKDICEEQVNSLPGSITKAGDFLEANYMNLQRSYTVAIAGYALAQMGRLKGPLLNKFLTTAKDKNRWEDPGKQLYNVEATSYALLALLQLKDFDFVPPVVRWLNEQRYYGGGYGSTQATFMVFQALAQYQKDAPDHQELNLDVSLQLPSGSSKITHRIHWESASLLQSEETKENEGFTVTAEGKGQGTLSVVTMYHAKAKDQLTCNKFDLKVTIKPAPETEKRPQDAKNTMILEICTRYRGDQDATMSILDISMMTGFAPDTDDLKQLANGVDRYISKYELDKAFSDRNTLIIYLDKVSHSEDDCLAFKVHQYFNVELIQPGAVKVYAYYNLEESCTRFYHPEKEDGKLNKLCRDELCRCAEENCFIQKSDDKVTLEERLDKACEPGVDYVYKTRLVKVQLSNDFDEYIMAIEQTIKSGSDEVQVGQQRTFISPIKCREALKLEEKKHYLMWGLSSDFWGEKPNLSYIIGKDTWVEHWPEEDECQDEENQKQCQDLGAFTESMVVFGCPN

B1: factor I (protein)
chain: KVTYTSQEDLVEKKCLAKKYTHLSCDKVFCQPWQRCIEGTCVCKLPYQCPKNGTAVCATNRRSFPTYCQQKSLECLHPGTKFLNNGTCTAEGKFSVSLKHGNTDSEGIVEVKLVDQDKTMFICKSSWSMREANVACLDLGFQQGADTQRRFKLSDLSINSTECLHVHCRGLETSLAECTFTKRRTMGYQDFADVVCYTQKADSPMDDFFQCVNGKYISQMKACDGINDCGDQSDELCCKACQGKGFHCKSGVCIPSQYQCNGEVDCITGEDEVGCAGFASVTQEETEILTADMDAERRRIKSLLPKLSCGVKNRMHIRRKRIVGGKRAQLGDLPWQVAIKDASGITCGGIYIGGCWILTAAHCLRASKTHRYQIWTTVVDWIHPDLKRIVIEYVDRIIFHENYNAGTYQNDIALIEMKKDGNKKDCELPRSIPACVPWSPYLFQPNDTCIVSGWGREKDNERVFSLQWGEVKLISNCSKFYGNRFYEKEMECAGTYDGSIDACKGDSGGPLVCMDANNVTYVWGVVSWGENCGKPEFPGVYTKVANYFDWISYHVGRPFISQYNV
[1]
  Factor I-mediated cleavage at position 1303 (35S label, SDS-PAGE, autoradiography): cleavage occurs in the order: arg(R)>tyr(Y)>cys(C) and trp(W)>gln(Q)>gly(G) and glu(E)
[2]
  Factor I-mediated cleavage at position 1303 (35S label, SDS-PAGE, autoradiography): cleavage occurs in the order: arg(R)>tyr(Y)>cys(C) and trp(W)>gln(Q)>gly(G) and glu(E)
[3]
  cleavage of the C3b-like product by factors H and I (immunoprecipitation, western blot): no 68 kDa band was present, showing that this mutant is resistant to cleavage at the mutated Gln1303
[4]
  Factor I-mediated cleavage at position 1303 (35S label, SDS-PAGE, autoradiography): cleavage occurs in the order: arg(R)>tyr(Y)>cys(C) and trp(W)>gln(Q)>gly(G) and glu(E)
  cleavage of the C3b-like product by factors H and I (immunoprecipitation, western blot): the absence of a 43 kDa band indicates that it is not cleaved at the mutated Gln1320
[5]
  Factor I-mediated cleavage at position 1303 (35S label, SDS-PAGE, autoradiography): cleavage occurs in the order: arg(R)>tyr(Y)>cys(C) and trp(W)>gln(Q)>gly(G) and glu(E)
[6]
  Factor I-mediated cleavage at position 1303 (35S label, SDS-PAGE, autoradiography): cleavage occurs in the order: arg(R)>tyr(Y)>cys(C) and trp(W)>gln(Q)>gly(G) and glu(E)
[7]
  Factor I-mediated cleavage at position 1303 (35S label, SDS-PAGE, autoradiography): cleavage occurs in the order: arg(R)>tyr(Y)>cys(C) and trp(W)>gln(Q)>gly(G) and glu(E)
  cleavage of the C3b-like product by factors H and I (immunoprecipitation, western blot): It was also very resistant to the additional factors H and I (3-D) in comparison with the unmutated C3 (1) and other mutants (2 and 4)
[8]
  Factor I-mediated cleavage at position 1303 (35S label, SDS-PAGE, autoradiography): cleavage occurs in the order: arg(R)>tyr(Y)>cys(C) and trp(W)>gln(Q)>gly(G) and glu(E)
[9]
  cleavage of the C3b product by factors H and I (immunoprecipitation, western blot): the C3b product is further cleaved by endogenous enzymes in 1-B or added factors H and I in 1-D. The 43 kDa band indicates cleavage at Arg1320, and the 68 kDa band (visible in longer exposures) indicates cleavage at Arg1303
